Here are results for one substance from PMC2118908.

The assay has as its target gp41 of HIV-1/IIIB virions (virus stock, culture supernatant) (HIV-1 (isolate IIIB)) (UniProt P04578). Nature of the assay: SEC + ELISA. (In an ELISA, binding on a coated surface is turned into a signal by an enzyme label.)

As for “gp120 of HIV-1/IIIB virions (virus stock, culture supernatant) (from UniProt P04578 33-511) (natural protein)”, the percent of total gp120 virion bound (virus + sCD4) worked out at 24%, the percent of total gp120 virion bound (virus + sCD4 + thrombin) came out at 18%, the percent of total gp120 virion bound (virus + thrombin + sCD4) stood at 20% and the percent of total gp120 virion bound (virus + thrombin) was determined as 59%. The percent of total gp120 virion bound (virus alone) was 57%, the percent of total gp120 virion-bound (virus stock) amounted to 55% and the reduction of virion bound gp120 after 10 h at 4C with sCD4 came out at 10%.
